Test results published in patent US20240026035A1 (published 2024).

B1: human alpha-gal-specific IgE mAb 16D9 (antibody, V domains shown)
VH: QVQLQQWGAGLLKPSETLSLTCAVYGGTFSDYFYTWIRQPPGKGLEWIGEVSHTGRTSYIPSLKSRVTMSVDTSKNQFSLNLSSVTDADTAVYYCGRGRGYTWNDWGQGTLVTVSS
VL: QSALTQPASVSGSPGQSITISCTGTITDVGGYDYVSWYQQHPGKAPKLIIFLVNNRPSGVSDRFSGSKSGNTASLTISGLRVEDEADYYCMSYTCSNPYTCSSLYVFGTGTKVTVL
notes: the IgE constant regions are not
B2: human alpha-gal-specific IgE mAb 10H8 (antibody, V domains shown)
VH: QVQLVESGGGVVQPGRSLRLSCAVSGFTFRSFGMHWVRQAPGKGLEWVAVIWHDGSNKHYADSVKGRFTISRDDSKNTLFLQMNSLRAEDTAVYYCARESEEQGNMDVWGQGTTVTVSS
VL: DVVMTQSPLSLPATLGQPASISCRSSHSLVYSNGNTYLNWFQQRPGQSPRRLFFQVSNRDSGVPDRFSGSGSVTNFTLKISRVEAEDVGVYYCMEGSHWPPYTFGQGTRLDIR
notes: as for B1

Target: T1, bovine thyroglobulin (bovine, UniProt P01267 20-2769, carries alpha-gal (galactose-alpha-1,3-galactose) glycans)
T1 construct: Antigen coated on ELISA plates, blotted, or on the ImmunoCAP o215 solid phase; It is recognised through its alpha-gal glycans; also called BTG; Thyroglobulin, bovine
T1 sequence (P01267 20-2769 limits assumed): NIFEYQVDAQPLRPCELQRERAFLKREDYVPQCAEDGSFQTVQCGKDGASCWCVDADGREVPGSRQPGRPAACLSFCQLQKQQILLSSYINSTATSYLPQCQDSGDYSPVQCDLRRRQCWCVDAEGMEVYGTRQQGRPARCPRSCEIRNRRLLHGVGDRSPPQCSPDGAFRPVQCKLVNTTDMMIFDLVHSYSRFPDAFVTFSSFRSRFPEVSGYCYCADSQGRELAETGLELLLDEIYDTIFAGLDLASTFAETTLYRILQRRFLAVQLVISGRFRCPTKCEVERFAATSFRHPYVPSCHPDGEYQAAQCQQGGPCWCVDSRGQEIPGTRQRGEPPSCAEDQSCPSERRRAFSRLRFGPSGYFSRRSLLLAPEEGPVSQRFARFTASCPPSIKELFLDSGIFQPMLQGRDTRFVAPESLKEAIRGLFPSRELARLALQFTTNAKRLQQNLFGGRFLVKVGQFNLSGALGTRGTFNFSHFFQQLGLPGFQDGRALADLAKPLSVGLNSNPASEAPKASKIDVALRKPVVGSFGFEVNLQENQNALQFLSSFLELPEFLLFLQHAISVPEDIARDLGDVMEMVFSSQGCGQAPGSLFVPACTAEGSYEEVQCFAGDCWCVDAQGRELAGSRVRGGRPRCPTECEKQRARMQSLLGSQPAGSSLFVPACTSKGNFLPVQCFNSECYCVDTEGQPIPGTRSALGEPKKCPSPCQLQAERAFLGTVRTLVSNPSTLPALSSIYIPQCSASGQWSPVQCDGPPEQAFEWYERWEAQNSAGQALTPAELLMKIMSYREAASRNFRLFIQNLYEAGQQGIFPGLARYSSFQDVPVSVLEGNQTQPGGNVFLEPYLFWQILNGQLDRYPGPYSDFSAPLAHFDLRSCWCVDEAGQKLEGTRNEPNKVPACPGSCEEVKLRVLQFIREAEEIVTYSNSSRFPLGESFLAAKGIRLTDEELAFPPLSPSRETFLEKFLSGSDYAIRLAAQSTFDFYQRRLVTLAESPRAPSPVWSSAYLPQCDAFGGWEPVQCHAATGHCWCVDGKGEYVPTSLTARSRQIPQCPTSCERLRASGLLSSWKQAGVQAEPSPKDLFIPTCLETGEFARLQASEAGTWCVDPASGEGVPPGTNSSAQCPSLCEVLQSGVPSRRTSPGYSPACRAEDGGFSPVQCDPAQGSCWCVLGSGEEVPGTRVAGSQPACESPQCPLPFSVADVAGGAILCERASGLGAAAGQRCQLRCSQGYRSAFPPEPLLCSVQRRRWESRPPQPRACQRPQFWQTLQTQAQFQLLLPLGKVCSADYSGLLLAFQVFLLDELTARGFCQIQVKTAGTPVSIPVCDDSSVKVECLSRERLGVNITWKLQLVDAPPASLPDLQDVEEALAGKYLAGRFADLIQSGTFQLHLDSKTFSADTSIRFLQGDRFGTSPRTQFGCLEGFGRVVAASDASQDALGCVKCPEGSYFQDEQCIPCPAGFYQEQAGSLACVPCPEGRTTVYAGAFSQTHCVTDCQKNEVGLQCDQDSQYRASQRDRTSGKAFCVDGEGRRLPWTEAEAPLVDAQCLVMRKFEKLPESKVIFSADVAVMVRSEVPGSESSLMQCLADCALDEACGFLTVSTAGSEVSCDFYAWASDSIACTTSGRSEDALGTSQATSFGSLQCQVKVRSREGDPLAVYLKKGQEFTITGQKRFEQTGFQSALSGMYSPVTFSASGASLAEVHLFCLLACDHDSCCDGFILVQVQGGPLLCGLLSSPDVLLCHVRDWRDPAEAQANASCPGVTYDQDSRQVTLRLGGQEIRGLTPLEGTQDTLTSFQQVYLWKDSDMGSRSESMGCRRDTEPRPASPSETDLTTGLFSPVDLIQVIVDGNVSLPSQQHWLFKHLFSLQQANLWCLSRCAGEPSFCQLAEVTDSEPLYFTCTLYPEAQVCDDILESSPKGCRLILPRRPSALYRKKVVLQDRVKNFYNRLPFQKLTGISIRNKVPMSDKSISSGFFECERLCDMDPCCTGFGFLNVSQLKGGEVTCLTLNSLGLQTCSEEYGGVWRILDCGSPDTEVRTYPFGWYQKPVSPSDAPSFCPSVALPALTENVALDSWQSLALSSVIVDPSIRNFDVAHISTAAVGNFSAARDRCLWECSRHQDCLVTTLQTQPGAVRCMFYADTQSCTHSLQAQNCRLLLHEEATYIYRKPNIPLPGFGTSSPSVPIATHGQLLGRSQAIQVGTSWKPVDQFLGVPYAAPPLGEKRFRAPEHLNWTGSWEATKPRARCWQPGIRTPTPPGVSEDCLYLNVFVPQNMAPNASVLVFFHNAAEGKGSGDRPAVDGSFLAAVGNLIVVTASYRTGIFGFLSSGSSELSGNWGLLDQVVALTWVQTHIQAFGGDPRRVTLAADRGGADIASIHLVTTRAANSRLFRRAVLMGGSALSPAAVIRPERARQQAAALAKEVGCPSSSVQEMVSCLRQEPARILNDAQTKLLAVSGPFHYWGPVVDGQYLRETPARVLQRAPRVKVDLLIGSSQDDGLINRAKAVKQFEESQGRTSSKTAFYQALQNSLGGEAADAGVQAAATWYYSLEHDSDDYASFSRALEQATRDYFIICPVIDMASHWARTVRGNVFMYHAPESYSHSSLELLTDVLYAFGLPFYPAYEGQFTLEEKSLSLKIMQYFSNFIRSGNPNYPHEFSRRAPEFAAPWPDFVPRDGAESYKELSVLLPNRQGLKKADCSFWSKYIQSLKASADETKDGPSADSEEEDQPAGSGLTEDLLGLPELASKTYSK
Assay: direct ELISA, bovine thyroglobulin coated at 25 ug/ml, purified IgE dilution series
From the text: Relative fluorescence intensity or optical density was determination on a Molecular Devices plate reader.
By performing EC₅₀ assays using purified IgE mAb, rough comparisons between mAb binding can be made.

Row | Binder | EC50 [µg/mL]
1 | B1 | 0.016
2 | B2 | 0.072
